Laboratory results from patent US20200024358A1 (published 2020).

Key:
[1] = biological target: T1, recombinant human PD-L1 His-tag protein (expressed after transient transfection in HEK293-6E) (human, UniProt Q9NZQ7 19-238, limits assumed); test: dual-binding ELISA: BCMA Fc coated, then PD-L1 His, anti-His detection
T1 construct: not shown: His-tag

[2] = biological target: T2, recombinant Human BCMA Fc Chimera (produced in-house via transient expression in HEK293-6E cells) (human, UniProt Q02223 1-54); test: dual-binding ELISA: BCMA Fc coated, then CD3 epsilon His or PD-L1 His, anti-His detection
T2 construct: not shown: Fc part of the chimera
T2 sequence (looked up): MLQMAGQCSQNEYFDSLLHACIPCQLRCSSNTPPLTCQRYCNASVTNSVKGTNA

[3] = biological target: T3, recombinant human CD3 epsilon His-tag protein (Novoprotein, Cat. No. C578) (human, UniProt P07766 23-126); test: dual-binding ELISA: BCMA Fc coated, then CD3 epsilon His, anti-His detection
T3 construct: Bought protein; not shown: His-tag
T3 sequence (P07766 23-126): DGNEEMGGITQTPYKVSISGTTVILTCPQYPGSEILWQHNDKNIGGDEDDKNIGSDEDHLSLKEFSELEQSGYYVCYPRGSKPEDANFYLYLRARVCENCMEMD

[4] = biological target: T4, extracellular domain of human PD-L1 (Example 8) (human, UniProt Q9NZQ7 19-238); test: ELISA on coated extracellular domain of human PD-L1, serial dilutions
T4 construct: extracellular domain; also called PD-L1 antigen; immobilized PD-L1
T4 sequence (Q9NZQ7 19-238): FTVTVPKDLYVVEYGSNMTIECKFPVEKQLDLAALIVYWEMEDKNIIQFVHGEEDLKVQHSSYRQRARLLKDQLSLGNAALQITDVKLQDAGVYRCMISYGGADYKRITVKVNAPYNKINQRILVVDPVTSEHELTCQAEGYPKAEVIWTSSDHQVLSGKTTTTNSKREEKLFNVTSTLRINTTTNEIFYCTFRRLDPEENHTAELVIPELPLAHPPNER
Protocol: Serial dilutions of the antibodies to final concentrations ranging from 0.5 ng/mL to 50 μg/ml were tested by ELISA for binding to the extracellular domain of human PD-L1 coated on a 96 well plate.

T1 sequence (Q9NZQ7 19-238 limits assumed): as the sequence (Q9NZQ7 19-238) above

Binder | binding result [4] | also measured
CDR1-047 (other, Trispecific Fab-scFv: anti-BCMA Fab, anti-CD3 scFv on the Fd, anti-PD-L1 scFv on the light chain) heavy: QIQLVQSGPELKKPGETVKISCKASGYTFTDYSINWVKRAPGKGLKWMGWINTETREPAYAYDFRGRFAFSLETSASTAYLQINNLKYEDTATYFCALDYSYAMDYWGQGTSVTVSSASTKGPSVFPLAPSSKSTSGGTAALGCLVKDYFPEPVTVSWNSGALTSGVHTFPAVLQSSGLYSLSSVVTVPSSSLGTQTYICNVNHKPSNTKVDKRVEPKSCGGGGSAVVTQEPSLTVSPGGTVTLTCGSSTGAVTTSNYANWVQQKPGKSPRGLIGGTNKRAPGVPARFSGSLLGGKAALTISGAQPEDEADYYCALWYSNHWVFGGGTKLTVLGGGGGSGGGGSGGGGSGGGGSEVQLVESGGGSVQPGGSLRLSCAASGFTFSTYAMNWVRQAPGKGLEWVGRIRSKANNYATYYADSVKGRFTISRDDSKNTLYLQMNSLRAEDTATYYCVRHGNFGDSYVSWFAYWGQGTTVTVSS light: DIVLTQSPASLAMSLGKRATISCRASESVSVIGAHLIHWYQQKPGQPPKLLIYLASNLETGVPARFSGSGSGTDFTLTIDPVEEDDVAIYSCLQSRIFPRTFGGGTKLEIKRTVAAPSVFIFPPSDEQLKSGTASVVCLLNNFYPREAKVQWKVDNALQSGNSQESVTEQDSKDSTYSLSSTLTLSKADYEKHKVYACEVTHQGLSSPVTKSFNRGECGGGGSEIVMTQSPSTLSASVGDRVIITCQASEDIYSLLAWYQQKPGKAPKLLIYDASDLASGVPSRFSGSGSGAEFTLTISSLQPDDSATYYCQGNYGSSSSSSYGAVFGQGTKLTVLGGGGGSGGGGSGGGGSGGGGSEVQLVESGGGSVQPGGSLRLSCTVSGIDLSSYTMGWVRQAPGKGLEWVGIISSGGRTYYASWAKGRFTISRDTSKNTVYLQMNSLRAEDTATYYCARGRYTGYPYYFALWGQGTTVTVSS |  | binding result [1]: binds; binding result [2]: binds; binding result [3]: binds
CDR1-013 (other) heavy: QIQLVQSGPELKKPGETVKISCKASGYTFTDYSINWVKRAPGKGLKWMGWINTETREPAYAYDFRGRFAFSLETSASTAYLQINNLKYEDTATYFCALDYSYAMDYWGQGTSVTVSSASTKGPSVFPLAPSSKSTSGGTAALGCLVKDYFPEPVTVSWNSGALTSGVHTFPAVLQSSGLYSLSSVVTVPSSSLGTQTYICNVNHKPSNTKVDKRVEPKSCGGGGSEIVMTQSPSTLSASVGDRVIITCQASEDIYSLLAWYQQKPGKAPKLLIYDASDLASGVPSRFSGSGSGAEFTLTISSLQPDDSATYYCQGAYGSSSSSSYGAVFGQGTKLTVLGGGGGSGGGGSGGGGSGGGGSEVQLVESGGGSVQPGGSLRLSCTVSGIDLSSYTMGWVRQAPGKGLEWVGIISSGGRTYYASWAKGRFTISRDTSKNTVYLQMNSLRAEDTATYYCARGRYTGYPYYFALWGQGTTVTVSS light: DIVLTQSPASLAMSLGKRATISCRASESVSVIGAHLIHWYQQKPGQPPKLLIYLASNLETGVPARFSGSGSGTDFTLTIDPVEEDDVAIYSCLQSRIFPRTFGGGTKLEIKRTVAAPSVFIFPPSDEQLKSGTASVVCLLNNFYPREAKVQWKVDNALQSGNSQESVTEQDSKDSTYSLSSTLTLSKADYEKHKVYACEVTHQGLSSPVTKSFNRGECGGGGSAVVTQEPSLTVSPGGTVTLTCGSSTGAVTTSNYANWVQQKPGKSPRGLIGGTNKRAPGVPARFSGSLLGGKAALTISGAQPEDEADYYCALWYSNHWVFGGGTKLTVLGGGGGSGGGGSGGGGSGGGGSEVQLVESGGGSVQPGGSLRLSCAASGFTFSTYAMNWVRQAPGKGLEWVGRIRSKANNYATYYADSVKGRFTISRDDSKNTLYLQMNSLRAEDTATYYCVRHGNFGDSYVSWFAYWGQGTTVTVSS | binds | 
CDR1-015 (other) heavy: QIQLVQSGPELKKPGETVKISCKASGYTFTDYSINWVKRAPGKGLKWMGWINTETREPAYAYDFRGRFAFSLETSASTAYLQINNLKYEDTATYFCALDYSYAMDYWGQGTSVTVSSASTKGPSVFPLAPSSKSTSGGTAALGCLVKDYFPEPVTVSWNSGALTSGVHTFPAVLQSSGLYSLSSVVTVPSSSLGTQTYICNVNHKPSNTKVDKRVEPKSCGGGGSEIVMTQSPSTLSASVGDRVIITCQASEDIYSLLAWYQQKPGKAPKLLIYDASDLASGVPSRFSGSGSGAEFTLTISSLQPDDSATYYCQGNYGSSSSSSYGAVFGQGTKLTVLGGGGGSGGGGSGGGGSGGGGSEVQLVESGGGSVQPGGSLRLSCTVSGIDLSSYTMGWVRQAPGKGLEWVGIISSAGRTYYASWAKGRFTISRDTSKNTVYLQMNSLRAEDTATYYCARGRYTGYPYYFALWGQGTTVTVSS light: DIVLTQSPASLAMSLGKRATISCRASESVSVIGAHLIHWYQQKPGQPPKLLIYLASNLETGVPARFSGSGSGTDFTLTIDPVEEDDVAIYSCLQSRIFPRTFGGGTKLEIKRTVAAPSVFIFPPSDEQLKSGTASVVCLLNNFYPREAKVQWKVDNALQSGNSQESVTEQDSKDSTYSLSSTLTLSKADYEKHKVYACEVTHQGLSSPVTKSFNRGECGGGGSAVVTQEPSLTVSPGGTVTLTCGSSTGAVTTSNYANWVQQKPGKSPRGLIGGTNKRAPGVPARFSGSLLGGKAALTISGAQPEDEADYYCALWYSNHWVFGGGTKLTVLGGGGGSGGGGSGGGGSGGGGSEVQLVESGGGSVQPGGSLRLSCAASGFTFSTYAMNWVRQAPGKGLEWVGRIRSKANNYATYYADSVKGRFTISRDDSKNTLYLQMNSLRAEDTATYYCVRHGNFGDSYVSWFAYWGQGTTVTVSS | binds | 
CDR1-018 (other) heavy: QIQLVQSGPELKKPGETVKISCKASGYTFTDYSINWVKRAPGKGLKWMGWINTETREPAYAYDFRGRFAFSLETSASTAYLQINNLKYEDTATYFCALDYSYAMDYWGQGTSVTVSSASTKGPSVFPLAPSSKSTSGGTAALGCLVKDYFPEPVTVSWNSGALTSGVHTFPAVLQSSGLYSLSSVVTVPSSSLGTQTYICNVNHKPSNTKVDKRVEPKSCGGGGSEIVMTQSPSTLSASVGDRVIITCQASEDIYSLLAWYQQKPGKAPKLLIYDASDLASGVPSRFSGSGSGAEFTLTISSLQPDDSATYYCQGNYGSSSSSSYGAVFGQGTKLTVLGGGGGSGGGGSGGGGSGGGGSEVQLVESGGGSVQPGGSLRLSCTVSGIDLSSYTMGWVRQAPGKGLEWVGIISSGGRTYYASWAKGRFTISRDTSKNTVYLQMNSLRAEDTATYYCARGRATGYPYYFALWGQGTTVTVSS light: DIVLTQSPASLAMSLGKRATISCRASESVSVIGAHLIHWYQQKPGQPPKLLIYLASNLETGVPARFSGSGSGTDFTLTIDPVEEDDVAIYSCLQSRIFPRTFGGGTKLEIKRTVAAPSVFIFPPSDEQLKSGTASVVCLLNNFYPREAKVQWKVDNALQSGNSQESVTEQDSKDSTYSLSSTLTLSKADYEKHKVYACEVTHQGLSSPVTKSFNRGECGGGGSAVVTQEPSLTVSPGGTVTLTCGSSTGAVTTSNYANWVQQKPGKSPRGLIGGTNKRAPGVPARFSGSLLGGKAALTISGAQPEDEADYYCALWYSNHWVFGGGTKLTVLGGGGGSGGGGSGGGGSGGGGSEVQLVESGGGSVQPGGSLRLSCAASGFTFSTYAMNWVRQAPGKGLEWVGRIRSKANNYATYYADSVKGRFTISRDDSKNTLYLQMNSLRAEDTATYYCVRHGNFGDSYVSWFAYWGQGTTVTVSS | binds | 
CDR1-016 (other) heavy: QIQLVQSGPELKKPGETVKISCKASGYTFTDYSINWVKRAPGKGLKWMGWINTETREPAYAYDFRGRFAFSLETSASTAYLQINNLKYEDTATYFCALDYSYAMDYWGQGTSVTVSSASTKGPSVFPLAPSSKSTSGGTAALGCLVKDYFPEPVTVSWNSGALTSGVHTFPAVLQSSGLYSLSSVVTVPSSSLGTQTYICNVNHKPSNTKVDKRVEPKSCGGGGSEIVMTQSPSTLSASVGDRVIITCQASEDIYSLLAWYQQKPGKAPKLLIYDASDLASGVPSRFSGSGSGAEFTLTISSLQPDDSATYYCQGNYGSSSSSSYGAVFGQGTKLTVLGGGGGSGGGGSGGGGSGGGGSEVQLVESGGGSVQPGGSLRLSCTVSGIDLSSYTMGWVRQAPGKGLEWVGIISSGGATYYASWAKGRFTISRDTSKNTVYLQMNSLRAEDTATYYCARGRYTGYPYYFALWGQGTTVTVSS light: DIVLTQSPASLAMSLGKRATISCRASESVSVIGAHLIHWYQQKPGQPPKLLIYLASNLETGVPARFSGSGSGTDFTLTIDPVEEDDVAIYSCLQSRIFPRTFGGGTKLEIKRTVAAPSVFIFPPSDEQLKSGTASVVCLLNNFYPREAKVQWKVDNALQSGNSQESVTEQDSKDSTYSLSSTLTLSKADYEKHKVYACEVTHQGLSSPVTKSFNRGECGGGGSAVVTQEPSLTVSPGGTVTLTCGSSTGAVTTSNYANWVQQKPGKSPRGLIGGTNKRAPGVPARFSGSLLGGKAALTISGAQPEDEADYYCALWYSNHWVFGGGTKLTVLGGGGGSGGGGSGGGGSGGGGSEVQLVESGGGSVQPGGSLRLSCAASGFTFSTYAMNWVRQAPGKGLEWVGRIRSKANNYATYYADSVKGRFTISRDDSKNTLYLQMNSLRAEDTATYYCVRHGNFGDSYVSWFAYWGQGTTVTVSS | binds | 
CDR1-014 (other) heavy: QIQLVQSGPELKKPGETVKISCKASGYTFTDYSINWVKRAPGKGLKWMGWINTETREPAYAYDFRGRFAFSLETSASTAYLQINNLKYEDTATYFCALDYSYAMDYWGQGTSVTVSSASTKGPSVFPLAPSSKSTSGGTAALGCLVKDYFPEPVTVSWNSGALTSGVHTFPAVLQSSGLYSLSSVVTVPSSSLGTQTYICNVNHKPSNTKVDKRVEPKSCGGGGSEIVMTQSPSTLSASVGDRVIITCQASEDIYSLLAWYQQKPGKAPKLLIYDASDLASGVPSRFSGSGSGAEFTLTISSLQPDDSATYYCQGNYGSSSSSSYGAVFGQGTKLTVLGGGGGSGGGGSGGGGSGGGGSEVQLVESGGGSVQPGGSLRLSCTVSGIDLSSYAMGWVRQAPGKGLEWVGIISSGGRTYYASWAKGRFTISRDTSKNTVYLQMNSLRAEDTATYYCARGRYTGYPYYFALWGQGTTVTVSS light: DIVLTQSPASLAMSLGKRATISCRASESVSVIGAHLIHWYQQKPGQPPKLLIYLASNLETGVPARFSGSGSGTDFTLTIDPVEEDDVAIYSCLQSRIFPRTFGGGTKLEIKRTVAAPSVFIFPPSDEQLKSGTASVVCLLNNFYPREAKVQWKVDNALQSGNSQESVTEQDSKDSTYSLSSTLTLSKADYEKHKVYACEVTHQGLSSPVTKSFNRGECGGGGSAVVTQEPSLTVSPGGTVTLTCGSSTGAVTTSNYANWVQQKPGKSPRGLIGGTNKRAPGVPARFSGSLLGGKAALTISGAQPEDEADYYCALWYSNHWVFGGGTKLTVLGGGGGSGGGGSGGGGSGGGGSEVQLVESGGGSVQPGGSLRLSCAASGFTFSTYAMNWVRQAPGKGLEWVGRIRSKANNYATYYADSVKGRFTISRDDSKNTLYLQMNSLRAEDTATYYCVRHGNFGDSYVSWFAYWGQGTTVTVSS | binds | 
